Measured values taken from the MegaScale stability set (Tsuboyama et al. 2023).

B1: EHEE_rd4_0726 (parent)
chain: DIEITTNGEEDAKRVIKELQKRNLEYHIEVHGNQWVIKVR

Variants of: B1
Assay: folding stability dG (cDNA display proteolysis); higher = more stable
Conditions: PBS, room temperature

Variant | folding stability dG [kcal/mol]
DIEITTNEEEDAKRVIKELQKRNLEYHIEVHGNQWVIKVR [G8E] | 1.77
DIEITTNFEEDAKRVIKELQKRNLEYHIEVHGNQWVIKVR [G8F] | 1.97
DIEITTNHEEDAKRVIKELQKRNLEYHIEVHGNQWVIKVR [G8H] | 2.1
DIEITTNIEEDAKRVIKELQKRNLEYHIEVHGNQWVIKVR [G8I] | 1.95
DIEITTNKEEDAKRVIKELQKRNLEYHIEVHGNQWVIKVR [G8K] | 2.02
DIEITTNLEEDAKRVIKELQKRNLEYHIEVHGNQWVIKVR [G8L] | 1.83
DIEITTNMEEDAKRVIKELQKRNLEYHIEVHGNQWVIKVR [G8M] | 1.69
DIEITTNNEEDAKRVIKELQKRNLEYHIEVHGNQWVIKVR [G8N] | 3.23
DIEITTNPEEDAKRVIKELQKRNLEYHIEVHGNQWVIKVR [G8P] | 0.219
DIEITTNQEEDAKRVIKELQKRNLEYHIEVHGNQWVIKVR [G8Q] | 1.84
DIEITTNREEDAKRVIKELQKRNLEYHIEVHGNQWVIKVR [G8R] | 2.33
DIEITTNSEEDAKRVIKELQKRNLEYHIEVHGNQWVIKVR [G8S] | 3.27
DIEITTNTEEDAKRVIKELQKRNLEYHIEVHGNQWVIKVR [G8T] | 3.07
DIEITTNVEEDAKRVIKELQKRNLEYHIEVHGNQWVIKVR [G8V] | 1.92
DIEITTNWEEDAKRVIKELQKRNLEYHIEVHGNQWVIKVR [G8W] | 1.75
DIEITTNYEEDAKRVIKELQKRNLEYHIEVHGNQWVIKVR [G8Y] | 1.92
DIEITTNGAEDAKRVIKELQKRNLEYHIEVHGNQWVIKVR [E9A] | 2.26
DIEITTNGDEDAKRVIKELQKRNLEYHIEVHGNQWVIKVR [E9D] | 1.5
DIEITTNGFEDAKRVIKELQKRNLEYHIEVHGNQWVIKVR [E9F] | 2.52
DIEITTNGGEDAKRVIKELQKRNLEYHIEVHGNQWVIKVR [E9G] | 1.76
DIEITTNGHEDAKRVIKELQKRNLEYHIEVHGNQWVIKVR [E9H] | 1.92
DIEITTNGIEDAKRVIKELQKRNLEYHIEVHGNQWVIKVR [E9I] | 2.48
DIEITTNGKEDAKRVIKELQKRNLEYHIEVHGNQWVIKVR [E9K] | 2.06
DIEITTNGLEDAKRVIKELQKRNLEYHIEVHGNQWVIKVR [E9L] | 2.36
DIEITTNGMEDAKRVIKELQKRNLEYHIEVHGNQWVIKVR [E9M] | 2.12

Variant | folding stability dG [kcal/mol]
DIEITTNGNEDAKRVIKELQKRNLEYHIEVHGNQWVIKVR [E9N] | 1.36
DIEITTNGPEDAKRVIKELQKRNLEYHIEVHGNQWVIKVR [E9P] | 2.46
DIEITTNGQEDAKRVIKELQKRNLEYHIEVHGNQWVIKVR [E9Q] | 1.92
DIEITTNGREDAKRVIKELQKRNLEYHIEVHGNQWVIKVR [E9R] | 2.19
DIEITTNGSEDAKRVIKELQKRNLEYHIEVHGNQWVIKVR [E9S] | 1.86
DIEITTNGTEDAKRVIKELQKRNLEYHIEVHGNQWVIKVR [E9T] | 1.52
DIEITTNGVEDAKRVIKELQKRNLEYHIEVHGNQWVIKVR [E9V] | 2.15
DIEITTNGWEDAKRVIKELQKRNLEYHIEVHGNQWVIKVR [E9W] | 3.31
DIEITTNGYEDAKRVIKELQKRNLEYHIEVHGNQWVIKVR [E9Y] | 2.78
DIEITTNGEADAKRVIKELQKRNLEYHIEVHGNQWVIKVR [E10A] | 2.4
DIEITTNGECDAKRVIKELQKRNLEYHIEVHGNQWVIKVR [E10C] | 2.43
DIEITTNGEDDAKRVIKELQKRNLEYHIEVHGNQWVIKVR [E10D] | 2.25
DIEITTNGEFDAKRVIKELQKRNLEYHIEVHGNQWVIKVR [E10F] | 2.05
DIEITTNGEGDAKRVIKELQKRNLEYHIEVHGNQWVIKVR [E10G] | 1.77
DIEITTNGEHDAKRVIKELQKRNLEYHIEVHGNQWVIKVR [E10H] | 2.02
DIEITTNGEIDAKRVIKELQKRNLEYHIEVHGNQWVIKVR [E10I] | 2.01
DIEITTNGEKDAKRVIKELQKRNLEYHIEVHGNQWVIKVR [E10K] | 2.14
DIEITTNGELDAKRVIKELQKRNLEYHIEVHGNQWVIKVR [E10L] | 2.15
DIEITTNGEMDAKRVIKELQKRNLEYHIEVHGNQWVIKVR [E10M] | 2.05
DIEITTNGENDAKRVIKELQKRNLEYHIEVHGNQWVIKVR [E10N] | 1.93
DIEITTNGEPDAKRVIKELQKRNLEYHIEVHGNQWVIKVR [E10P] | 1.52
DIEITTNGEQDAKRVIKELQKRNLEYHIEVHGNQWVIKVR [E10Q] | 2.16
DIEITTNGERDAKRVIKELQKRNLEYHIEVHGNQWVIKVR [E10R] | 2.18
DIEITTNGESDAKRVIKELQKRNLEYHIEVHGNQWVIKVR [E10S] | 1.95
DIEITTNGETDAKRVIKELQKRNLEYHIEVHGNQWVIKVR [E10T] | 1.93

Variant | folding stability dG [kcal/mol]
DIEITTNGEVDAKRVIKELQKRNLEYHIEVHGNQWVIKVR [E10V] | 2.02
DIEITTNGEWDAKRVIKELQKRNLEYHIEVHGNQWVIKVR [E10W] | 2.21
DIEITTNGEYDAKRVIKELQKRNLEYHIEVHGNQWVIKVR [E10Y] | 2.07
DIEITTNGEEAAKRVIKELQKRNLEYHIEVHGNQWVIKVR [D11A] | 2.73
DIEITTNGEEEAKRVIKELQKRNLEYHIEVHGNQWVIKVR [D11E] | 2.95
DIEITTNGEEFAKRVIKELQKRNLEYHIEVHGNQWVIKVR [D11F] | 2.31
DIEITTNGEEGAKRVIKELQKRNLEYHIEVHGNQWVIKVR [D11G] | 1.92
DIEITTNGEEHAKRVIKELQKRNLEYHIEVHGNQWVIKVR [D11H] | 2.52
DIEITTNGEEIAKRVIKELQKRNLEYHIEVHGNQWVIKVR [D11I] | 2.03
DIEITTNGEEKAKRVIKELQKRNLEYHIEVHGNQWVIKVR [D11K] | 1.78
DIEITTNGEELAKRVIKELQKRNLEYHIEVHGNQWVIKVR [D11L] | 2.12
DIEITTNGEEMAKRVIKELQKRNLEYHIEVHGNQWVIKVR [D11M] | 2.59
DIEITTNGEENAKRVIKELQKRNLEYHIEVHGNQWVIKVR [D11N] | 2.28
DIEITTNGEEPAKRVIKELQKRNLEYHIEVHGNQWVIKVR [D11P] | 1.49
DIEITTNGEEQAKRVIKELQKRNLEYHIEVHGNQWVIKVR [D11Q] | 2.63
DIEITTNGEERAKRVIKELQKRNLEYHIEVHGNQWVIKVR [D11R] | 1.99
DIEITTNGEESAKRVIKELQKRNLEYHIEVHGNQWVIKVR [D11S] | 2.3
DIEITTNGEETAKRVIKELQKRNLEYHIEVHGNQWVIKVR [D11T] | 2.05
DIEITTNGEEVAKRVIKELQKRNLEYHIEVHGNQWVIKVR [D11V] | 1.93
DIEITTNGEEWAKRVIKELQKRNLEYHIEVHGNQWVIKVR [D11W] | 2.62
DIEITTNGEEYAKRVIKELQKRNLEYHIEVHGNQWVIKVR [D11Y] | 2.21
DIEITTNGEEDEKRVIKELQKRNLEYHIEVHGNQWVIKVR [A12E] | -0.056
DIEITTNGEEDFKRVIKELQKRNLEYHIEVHGNQWVIKVR [A12F] | 2.45
DIEITTNGEEDGKRVIKELQKRNLEYHIEVHGNQWVIKVR [A12G] | 1.43
DIEITTNGEEDHKRVIKELQKRNLEYHIEVHGNQWVIKVR [A12H] | 1.01

Variant | folding stability dG [kcal/mol]
DIEITTNGEEDIKRVIKELQKRNLEYHIEVHGNQWVIKVR [A12I] | 1.49
DIEITTNGEEDKKRVIKELQKRNLEYHIEVHGNQWVIKVR [A12K] | 1.06
DIEITTNGEEDLKRVIKELQKRNLEYHIEVHGNQWVIKVR [A12L] | 2.53
DIEITTNGEEDMKRVIKELQKRNLEYHIEVHGNQWVIKVR [A12M] | 2.51
DIEITTNGEEDNKRVIKELQKRNLEYHIEVHGNQWVIKVR [A12N] | 0.444
DIEITTNGEEDPKRVIKELQKRNLEYHIEVHGNQWVIKVR [A12P] | -0.076
DIEITTNGEEDQKRVIKELQKRNLEYHIEVHGNQWVIKVR [A12Q] | 0.813
DIEITTNGEEDRKRVIKELQKRNLEYHIEVHGNQWVIKVR [A12R] | 1.17
DIEITTNGEEDSKRVIKELQKRNLEYHIEVHGNQWVIKVR [A12S] | 1.28
DIEITTNGEEDTKRVIKELQKRNLEYHIEVHGNQWVIKVR [A12T] | 1.74
DIEITTNGEEDVKRVIKELQKRNLEYHIEVHGNQWVIKVR [A12V] | 1.74
DIEITTNGEEDWKRVIKELQKRNLEYHIEVHGNQWVIKVR [A12W] | 1.51
DIEITTNGEEDYKRVIKELQKRNLEYHIEVHGNQWVIKVR [A12Y] | 1.82
DIEITTNGEEDAARVIKELQKRNLEYHIEVHGNQWVIKVR [K13A] | 2.4
DIEITTNGEEDACRVIKELQKRNLEYHIEVHGNQWVIKVR [K13C] | 2.59
DIEITTNGEEDADRVIKELQKRNLEYHIEVHGNQWVIKVR [K13D] | 1.72
DIEITTNGEEDAERVIKELQKRNLEYHIEVHGNQWVIKVR [K13E] | 1.97
DIEITTNGEEDAFRVIKELQKRNLEYHIEVHGNQWVIKVR [K13F] | 2.58
DIEITTNGEEDAGRVIKELQKRNLEYHIEVHGNQWVIKVR [K13G] | 1.76
DIEITTNGEEDAHRVIKELQKRNLEYHIEVHGNQWVIKVR [K13H] | 2.24
DIEITTNGEEDAIRVIKELQKRNLEYHIEVHGNQWVIKVR [K13I] | 2.52
DIEITTNGEEDALRVIKELQKRNLEYHIEVHGNQWVIKVR [K13L] | 2.76
DIEITTNGEEDAMRVIKELQKRNLEYHIEVHGNQWVIKVR [K13M] | 2.96
DIEITTNGEEDANRVIKELQKRNLEYHIEVHGNQWVIKVR [K13N] | 2.32
DIEITTNGEEDAPRVIKELQKRNLEYHIEVHGNQWVIKVR [K13P] | 0.028

Variant | folding stability dG [kcal/mol]
DIEITTNGEEDAQRVIKELQKRNLEYHIEVHGNQWVIKVR [K13Q] | 2.52
DIEITTNGEEDARRVIKELQKRNLEYHIEVHGNQWVIKVR [K13R] | 2.71
DIEITTNGEEDASRVIKELQKRNLEYHIEVHGNQWVIKVR [K13S] | 1.93
DIEITTNGEEDATRVIKELQKRNLEYHIEVHGNQWVIKVR [K13T] | 1.96
DIEITTNGEEDAVRVIKELQKRNLEYHIEVHGNQWVIKVR [K13V] | 2.12
DIEITTNGEEDAWRVIKELQKRNLEYHIEVHGNQWVIKVR [K13W] | 3
DIEITTNGEEDAYRVIKELQKRNLEYHIEVHGNQWVIKVR [K13Y] | 2.73
DIEITTNGEEDAKAVIKELQKRNLEYHIEVHGNQWVIKVR [R14A] | 2.33
DIEITTNGEEDAKCVIKELQKRNLEYHIEVHGNQWVIKVR [R14C] | 2.57
DIEITTNGEEDAKDVIKELQKRNLEYHIEVHGNQWVIKVR [R14D] | 1.59
DIEITTNGEEDAKEVIKELQKRNLEYHIEVHGNQWVIKVR [R14E] | 2.04
DIEITTNGEEDAKFVIKELQKRNLEYHIEVHGNQWVIKVR [R14F] | 2.24
DIEITTNGEEDAKGVIKELQKRNLEYHIEVHGNQWVIKVR [R14G] | 1.51
DIEITTNGEEDAKHVIKELQKRNLEYHIEVHGNQWVIKVR [R14H] | 1.83
DIEITTNGEEDAKIVIKELQKRNLEYHIEVHGNQWVIKVR [R14I] | 2.19
DIEITTNGEEDAKKVIKELQKRNLEYHIEVHGNQWVIKVR [R14K] | 2.43
DIEITTNGEEDAKLVIKELQKRNLEYHIEVHGNQWVIKVR [R14L] | 2.3
DIEITTNGEEDAKMVIKELQKRNLEYHIEVHGNQWVIKVR [R14M] | 2.27
DIEITTNGEEDAKNVIKELQKRNLEYHIEVHGNQWVIKVR [R14N] | 1.9
DIEITTNGEEDAKPVIKELQKRNLEYHIEVHGNQWVIKVR [R14P] | 1.04
DIEITTNGEEDAKQVIKELQKRNLEYHIEVHGNQWVIKVR [R14Q] | 2
DIEITTNGEEDAKSVIKELQKRNLEYHIEVHGNQWVIKVR [R14S] | 1.82
DIEITTNGEEDAKTVIKELQKRNLEYHIEVHGNQWVIKVR [R14T] | 1.84
DIEITTNGEEDAKVVIKELQKRNLEYHIEVHGNQWVIKVR [R14V] | 2.04
DIEITTNGEEDAKWVIKELQKRNLEYHIEVHGNQWVIKVR [R14W] | 2.85
